In IntAct's records for PubMed 20224574:

B1: Nibrin (Homo sapiens), O60934 (parent)
chain: MWKLLPAAGPAGGEPYRLLTGVEYVVGRKNCAILIENDQSISRNHAVLTANFSVTNLSQTDEIPVLTLKDNSKYGTFVNEEKMQNGFSRTLKSGDGITFGVFGSKFRIEYEPLVACSSCLDVSGKTALNQAILQLGGFTVNNWTEECTHLVMVSVKVTIKTICALICGRPIVKPEYFTEFLKAVESKKQPPQIESFYPPLDEPSIGSKNVDLSGRQERKQIFKGKTFIFLNAKQHKKLSSAVVFGGGEARLITEENEEEHNFFLAPGTCVVDTGITNSQTLIPDCQKKWIQSIMDMLQRQGLRPIPEAEIGLAVIFMTTKNYCDPQGHPSTGLKTTTPGPSLSQGVSVDEKLMPSAPVNTTTYVADTESEQADTWDLSERPKEIKVSKMEQKFRMLSQDAPTVKESCKTSSNNNSMVSNTLAKMRIPNYQLSPTKLPSINKSKDRASQQQQTNSIRNYFQPSTKKRERDEENQEMSSCKSARIETSCSLLEQTQPATPSLWKNKEQHLSENEPVDTNSDNNLFTDTDLKSIVKNSASKSHAAEKLRSNKKREMDDVAIEDEVLEQLFKDTKPELEIDVKVQKQEEDVNVRKRPRMDIETNDTFSDEAVPESSKISQENEIGKKRELKEDSLWSAKEISNNDKLQDDSEMLPKKLLLTEFRSLVIKNSTSRNPSGINDDYGQLKNFKKFKKVTYPGAGKLPHIIGGSDLIAHHARKNTELEEWLRQEMEVQNQHAKEESLADDLFRYNPYLKRRR

Experiments:
Details in all cases: with mdc1_human MDC1, Q14676
Sequence of mdc1_human MDC1, Q14676 (Q14676 whole entry): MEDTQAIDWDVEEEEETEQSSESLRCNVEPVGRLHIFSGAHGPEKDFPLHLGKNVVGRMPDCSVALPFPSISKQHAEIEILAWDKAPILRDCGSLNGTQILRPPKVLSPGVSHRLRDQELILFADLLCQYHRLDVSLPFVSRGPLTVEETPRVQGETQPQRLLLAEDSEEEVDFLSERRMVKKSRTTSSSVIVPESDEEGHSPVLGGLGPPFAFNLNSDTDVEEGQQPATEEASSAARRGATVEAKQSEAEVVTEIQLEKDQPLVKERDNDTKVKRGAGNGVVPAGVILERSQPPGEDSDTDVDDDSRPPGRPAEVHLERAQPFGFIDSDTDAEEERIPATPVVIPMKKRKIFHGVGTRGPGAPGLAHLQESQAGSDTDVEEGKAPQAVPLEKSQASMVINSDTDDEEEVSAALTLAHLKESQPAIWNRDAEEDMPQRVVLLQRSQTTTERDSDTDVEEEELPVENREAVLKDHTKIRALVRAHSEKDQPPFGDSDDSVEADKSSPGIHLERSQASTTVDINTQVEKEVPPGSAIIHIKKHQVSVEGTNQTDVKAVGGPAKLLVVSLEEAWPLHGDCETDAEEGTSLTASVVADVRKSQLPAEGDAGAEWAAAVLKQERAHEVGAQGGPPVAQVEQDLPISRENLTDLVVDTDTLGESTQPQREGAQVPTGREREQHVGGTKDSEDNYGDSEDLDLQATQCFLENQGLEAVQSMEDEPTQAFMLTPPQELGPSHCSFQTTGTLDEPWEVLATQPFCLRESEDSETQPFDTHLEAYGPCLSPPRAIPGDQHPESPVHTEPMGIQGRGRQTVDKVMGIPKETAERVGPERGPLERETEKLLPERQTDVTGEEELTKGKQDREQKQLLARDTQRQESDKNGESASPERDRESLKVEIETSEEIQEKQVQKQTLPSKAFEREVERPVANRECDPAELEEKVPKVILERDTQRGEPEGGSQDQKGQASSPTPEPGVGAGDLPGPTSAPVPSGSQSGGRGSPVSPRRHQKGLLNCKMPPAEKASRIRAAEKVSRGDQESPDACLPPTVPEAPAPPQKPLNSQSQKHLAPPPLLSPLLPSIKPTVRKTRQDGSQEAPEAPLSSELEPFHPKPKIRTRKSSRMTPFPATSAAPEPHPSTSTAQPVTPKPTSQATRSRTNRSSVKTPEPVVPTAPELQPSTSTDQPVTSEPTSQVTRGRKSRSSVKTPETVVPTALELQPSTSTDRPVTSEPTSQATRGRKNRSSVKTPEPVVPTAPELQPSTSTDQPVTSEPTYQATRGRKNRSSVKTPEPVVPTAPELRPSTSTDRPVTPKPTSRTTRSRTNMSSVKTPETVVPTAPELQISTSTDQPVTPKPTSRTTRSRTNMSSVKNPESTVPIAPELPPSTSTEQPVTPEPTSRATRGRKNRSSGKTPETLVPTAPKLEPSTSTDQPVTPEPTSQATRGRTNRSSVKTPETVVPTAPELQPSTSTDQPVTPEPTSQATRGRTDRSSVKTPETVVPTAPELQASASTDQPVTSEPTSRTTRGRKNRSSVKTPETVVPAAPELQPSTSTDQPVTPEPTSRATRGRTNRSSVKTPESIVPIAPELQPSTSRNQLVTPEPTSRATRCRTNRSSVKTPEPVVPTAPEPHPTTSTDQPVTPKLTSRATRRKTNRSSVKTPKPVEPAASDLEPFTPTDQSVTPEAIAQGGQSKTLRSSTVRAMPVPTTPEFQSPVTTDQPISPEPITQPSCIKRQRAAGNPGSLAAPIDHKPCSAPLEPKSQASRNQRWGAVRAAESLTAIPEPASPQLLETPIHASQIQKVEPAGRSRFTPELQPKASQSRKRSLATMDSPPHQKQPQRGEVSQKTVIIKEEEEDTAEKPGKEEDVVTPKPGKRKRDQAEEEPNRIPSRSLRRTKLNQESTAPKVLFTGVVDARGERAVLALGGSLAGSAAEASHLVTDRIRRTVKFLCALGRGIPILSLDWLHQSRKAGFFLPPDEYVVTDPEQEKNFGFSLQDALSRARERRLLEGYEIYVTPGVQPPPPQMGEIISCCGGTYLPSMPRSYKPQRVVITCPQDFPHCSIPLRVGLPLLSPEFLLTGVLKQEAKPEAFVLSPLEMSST

mdc1_human MDC1, Q14676 [1] = variants of: B1
mdc1_human MDC1, Q14676 [2] = variants of: B1; remark: listed apart in the source
mdc1_human MDC1, Q14676 [3] = variants of: B1; remark: listed apart in the source

Row | effect of a mutation on the interaction (mdc1_human MDC1, Q14676 [1]) | effect of a mutation on the interaction (mdc1_human MDC1, Q14676 [2]) | effect of a mutation on the interaction (mdc1_human MDC1, Q14676 [3]) | Variant
1 | decreasing interaction | disrupting interaction |  | K160M
2 |  | disrupting interaction | decreasing interaction | R28A
